Reference: patent US20200317768A1 (published 2020)

T1: cynomolgus monkey FcγRIIa1 extracellular domain, His-tagged (cynomolgus monkey)
T1 construct: also called cyno FcγRIIa1; cynoFcgRIIa1; not shown: C-terminal His-tag
T1 chain: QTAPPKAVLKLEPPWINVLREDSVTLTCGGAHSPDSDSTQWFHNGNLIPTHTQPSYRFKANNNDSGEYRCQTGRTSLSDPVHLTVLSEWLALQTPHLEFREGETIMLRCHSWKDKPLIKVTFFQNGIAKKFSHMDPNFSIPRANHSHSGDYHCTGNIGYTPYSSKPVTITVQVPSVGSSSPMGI

T2: cynomolgus monkey FcγRIIa2 extracellular domain, His-tagged (cynomolgus monkey)
T2 construct: also called cyno FcγRIIa2; cynoFcgRIIa2; not shown: C-terminal His-tag
T2 chain: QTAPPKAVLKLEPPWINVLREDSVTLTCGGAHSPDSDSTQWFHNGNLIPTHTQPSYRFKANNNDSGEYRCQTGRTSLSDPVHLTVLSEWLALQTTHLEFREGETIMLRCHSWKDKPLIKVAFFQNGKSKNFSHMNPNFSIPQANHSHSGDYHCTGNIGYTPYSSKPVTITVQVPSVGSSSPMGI

T3: cynomolgus monkey FcγRIIb extracellular domain, His-tagged (cynomolgus monkey)
T3 construct: also called cyno FcγRIIb; cynoFcγRIIb; not shown: C-terminal His-tag
T3 chain: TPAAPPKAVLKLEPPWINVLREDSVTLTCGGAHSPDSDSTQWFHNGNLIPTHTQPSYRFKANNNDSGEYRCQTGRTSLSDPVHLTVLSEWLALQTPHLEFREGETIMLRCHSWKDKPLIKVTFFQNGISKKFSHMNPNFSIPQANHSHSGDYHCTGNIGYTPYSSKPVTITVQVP

T4: human FcγRIIaH extracellular domain, His-tagged (human, UniProt P12318 34-217)
T4 construct: also called human FcγRIIa (type H); FcgRIIaH; not shown: C-terminal His-tag
T4 sequence: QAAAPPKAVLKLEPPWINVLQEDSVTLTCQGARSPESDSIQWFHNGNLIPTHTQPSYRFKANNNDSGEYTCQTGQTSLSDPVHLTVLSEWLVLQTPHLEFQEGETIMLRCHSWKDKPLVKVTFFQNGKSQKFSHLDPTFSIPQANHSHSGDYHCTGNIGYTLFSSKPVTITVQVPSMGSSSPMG

T5: cynomolgus monkey FcγRIIIaS extracellular domain, His-tagged (cynomolgus monkey, UniProt Q8SPW2 21-206 at identity 1.00))
T5 construct: also called cyno FcγRIIIaS; cynoFcγRIIIaS; not shown: C-terminal His-tag
T5 chain: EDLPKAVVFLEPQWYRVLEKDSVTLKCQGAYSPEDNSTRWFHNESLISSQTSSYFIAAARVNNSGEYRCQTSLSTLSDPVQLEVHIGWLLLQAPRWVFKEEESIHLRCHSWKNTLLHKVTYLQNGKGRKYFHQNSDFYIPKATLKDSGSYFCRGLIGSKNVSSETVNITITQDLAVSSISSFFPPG

T6: cynomolgus monkey FcγRIIa3 extracellular domain, His-tagged (cynomolgus monkey)
T6 construct: also called cyno FcγRIIa3; cynoFcgRIIa3; not shown: C-terminal His-tag
T6 chain: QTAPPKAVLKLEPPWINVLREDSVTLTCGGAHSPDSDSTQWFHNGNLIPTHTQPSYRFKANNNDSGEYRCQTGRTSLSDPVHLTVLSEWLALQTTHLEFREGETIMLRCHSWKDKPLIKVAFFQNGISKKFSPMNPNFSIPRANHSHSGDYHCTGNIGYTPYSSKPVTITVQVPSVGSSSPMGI

T7: human FcγRIIaR extracellular domain, His-tagged (human, UniProt P12318 34-217)
T7 construct: also called human FcγRIIa (type R); FcgRIIaR; not shown: C-terminal His-tag
T7 chain: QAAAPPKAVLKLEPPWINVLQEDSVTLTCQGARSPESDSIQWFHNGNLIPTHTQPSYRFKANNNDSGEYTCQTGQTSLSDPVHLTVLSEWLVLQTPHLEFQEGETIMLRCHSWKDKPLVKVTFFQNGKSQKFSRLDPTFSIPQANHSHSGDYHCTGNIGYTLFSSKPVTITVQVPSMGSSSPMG


Legend:
[1] = target: T8, human FcγRIIIaV extracellular domain, His-tagged (human, UniProt P08637 17-208); assay: SPR (BIACORE); KD of SG1 divided by KD of variant;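 further: relative to parent M103205H795-SG1 carrying the SG1 human heavy chain constant region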
T8 construct: also called FcgRIIIaV; not shown: C-terminal His-tag

[2] = target: T1, cynomolgus monkey FcγRIIa1 …; assay: SPR (BIACORE); KD of SG1 divided by KD of variant;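 further: relative to parent M103205H795-SG1 carrying the SG1 human heavy chain constant region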
[3] = target: T2, cynomolgus monkey FcγRIIa2 …; assay: SPR (BIACORE), captured antibody, FcgR as analyte
[4] = target: T3, cynomolgus monkey FcγRIIb extracellular …; assay: SPR (BIACORE), captured antibody, FcgR as analyte
[5] = target: T8, human FcγRIIIaV extracellular domain, …; assay: SPR (BIACORE), captured antibody, FcgR as analyte
[6] = target: T1, cynomolgus monkey FcγRIIa1 …; assay: SPR (BIACORE), captured antibody, FcgR as analyte
[7] = target: T4, human FcγRIIaH extracellular domain, …; assay: SPR (BIACORE), captured antibody, FcgR as analyte
[8] = target: T5, cynomolgus monkey FcγRIIIaS …; assay: SPR (BIACORE), captured antibody, FcgR as analyte
[9] = target: T6, cynomolgus monkey FcγRIIa3 …; assay: SPR (BIACORE), captured antibody, FcgR as analyte
[10] = target: T7, human FcγRIIaR extracellular domain, …; assay: SPR (BIACORE), captured antibody, FcgR as analyte

T8 sequence (P08637 17-208 F176V): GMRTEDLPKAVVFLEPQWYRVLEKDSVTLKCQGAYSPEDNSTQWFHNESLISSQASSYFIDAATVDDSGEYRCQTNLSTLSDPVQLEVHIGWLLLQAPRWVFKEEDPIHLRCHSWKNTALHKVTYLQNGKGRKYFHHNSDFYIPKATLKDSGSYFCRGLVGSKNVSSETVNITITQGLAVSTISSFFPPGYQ

Row | Binder | KD fold (SG1 = 1) [1] [fold] | KD fold (SG1 = 1) [2] [fold] | Kd [3] [nM] | Kd [4] [nM] | Kd [5] [nM] | Kd [6] [nM] | Kd [7] [nM] | Kd [8] [nM] | Kd [9] [nM] | Kd [10] [nM]
1 | M103205H795-MY466/M103202L889-SK1 (antibody, human IgG1, kappa, copies: 2 + 2) heavy: QVTLKESGPVLVKPTETLTLTCTVSGIDLSHDDISWVRQAPGKGLEWVGIISYAGSTYYASWAKGRLTISKDTSKNQVVLTMTNMDPVDTATYYCARGVPAYSHGGDLWGQGTLVTVSSASTKGPSVFPLAPSSKSTSGGTAALGCLVKDYFPEPVTVSWNSGALTSGVHTFPAVLQSSGLYSLSSVVTVPSSSLGTQTYICNVNHKPSNTKVDKKVEPKSCDKTHTCPPCPLPELLTGPSVFLFPPKPKDTLMISRTPEVTCVVVDVSDEDPEVKFNWYVDGVEVHNAKTKPREEQYNSTYRVVSVLTVLHQDWLNGKEYKCKVSNKALPKPIEKTISKAKGQPREPQVYTLPPSREEMTKNQVSLTCLVKGFYPSDIAVEWESNGQPENNYKTTPPVLDSDGSFFLYSKLTVDKSRWQQGNVFSCSVMHEALHNHYTQKSLSLSP light: DIVMTQSPATLSLSPGERATLSCTSSQSVYHANWLSWFQQKPGQPPKLLIYWASTLAYGVPSRFSGSGSGTDFTLTISSLQPEDAATYYCAGGYGGGRYAFGQGTKVEIKRTVAAPSVFIFPPSDEQLKSGTASVVCLLNNFYPREAKVQWKVDNALQSGNSQESVTEQDSKDSTYSLSSTLTLSKADYEKHKVYACEVTHQGLSSPVTKSFNRGEC | 0.3 | 1.7 | 1800 | 510 | 4300 | 1900 | 170 | 1800 | 4400 | 280
2 | M103205H795-MY469/M103202L889-SK1 (antibody, human IgG1, kappa, copies: 2 + 2) heavy: QVTLKESGPVLVKPTETLTLTCTVSGIDLSHDDISWVRQAPGKGLEWVGIISYAGSTYYASWAKGRLTISKDTSKNQVVLTMTNMDPVDTATYYCARGVPAYSHGGDLWGQGTLVTVSSASTKGPSVFPLAPSSKSTSGGTAALGCLVKDYFPEPVTVSWNSGALTSGVHTFPAVLQSSGLYSLSSVVTVPSSSLGTQTYICNVNHKPSNTKVDKKVEPKSCDKTHTCPPCPPPELLTGPSVFLFPPKPKDTLMISRTPEVTCVVVDVSDEDPEVKFNWYVDGVEVHNAKTKPREEQYNSTYRVVSVLTVLHQDWLNGKEYKCKVSNKALPKPIEKTISKAKGQPREPQVYTLPPSREEMTKNQVSLTCLVKGFYPSDIAVEWESNGQPENNYKTTPPVLDSDGSFFLYSKLTVDKSRWQQGNVFSCSVMHEALHNHYTQKSLSLSP light: DIVMTQSPATLSLSPGERATLSCTSSQSVYHANWLSWFQQKPGQPPKLLIYWASTLAYGVPSRFSGSGSGTDFTLTISSLQPEDAATYYCAGGYGGGRYAFGQGTKVEIKRTVAAPSVFIFPPSDEQLKSGTASVVCLLNNFYPREAKVQWKVDNALQSGNSQESVTEQDSKDSTYSLSSTLTLSKADYEKHKVYACEVTHQGLSSPVTKSFNRGEC | 0.1 | 1.5 | 2100 | 610 | 5900 | 2200 | 200 | 2200 | 4900 | 430

More lines, in order of falling Kd [3], values ahead:

Row | KD fold (SG1 = 1) [1] [fold] | KD fold (SG1 = 1) [2] [fold] | Kd [3] [nM] | Kd [4] [nM] | Kd [5] [nM] | Kd [6] [nM] | Kd [7] [nM] | Kd [8] [nM] | Kd [9] [nM] | Kd [10] [nM] | Binder
3 | 0.1 | 1.1 | 2500 | 650 | 6800 | 2800 | 280 | 2300 | 5200 | 470 | M103205H795-MY468/M103202L889-SK1 (antibody, human IgG1, kappa, copies: 2 + 2) heavy: QVTLKESGPVLVKPTETLTLTCTVSGIDLSHDDISWVRQAPGKGLEWVGIISYAGSTYYASWAKGRLTISKDTSKNQVVLTMTNMDPVDTATYYCARGVPAYSHGGDLWGQGTLVTVSSASTKGPSVFPLAPSSKSTSGGTAALGCLVKDYFPEPVTVSWNSGALTSGVHTFPAVLQSSGLYSLSSVVTVPSSSLGTQTYICNVNHKPSNTKVDKKVEPKSCDKTHTCPPCPNPELLTGPSVFLFPPKPKDTLMISRTPEVTCVVVDVSDEDPEVKFNWYVDGVEVHNAKTKPREEQYNSTYRVVSVLTVLHQDWLNGKEYKCKVSNKALPKPIEKTISKAKGQPREPQVYTLPPSREEMTKNQVSLTCLVKGFYPSDIAVEWESNGQPENNYKTTPPVLDSDGSFFLYSKLTVDKSRWQQGNVFSCSVMHEALHNHYTQKSLSLSP light: DIVMTQSPATLSLSPGERATLSCTSSQSVYHANWLSWFQQKPGQPPKLLIYWASTLAYGVPSRFSGSGSGTDFTLTISSLQPEDAATYYCAGGYGGGRYAFGQGTKVEIKRTVAAPSVFIFPPSDEQLKSGTASVVCLLNNFYPREAKVQWKVDNALQSGNSQESVTEQDSKDSTYSLSSTLTLSKADYEKHKVYACEVTHQGLSSPVTKSFNRGEC
4 | 0.2 | 1.7 | 1900 | 510 | 4800 | 1900 | 180 | 1700 | 4700 | 360 | M103205H795-MY467/M103202L889-SK1 (antibody, human IgG1, kappa, copies: 2 + 2) heavy: QVTLKESGPVLVKPTETLTLTCTVSGIDLSHDDISWVRQAPGKGLEWVGIISYAGSTYYASWAKGRLTISKDTSKNQVVLTMTNMDPVDTATYYCARGVPAYSHGGDLWGQGTLVTVSSASTKGPSVFPLAPSSKSTSGGTAALGCLVKDYFPEPVTVSWNSGALTSGVHTFPAVLQSSGLYSLSSVVTVPSSSLGTQTYICNVNHKPSNTKVDKKVEPKSCDKTHTCPPCPMPELLTGPSVFLFPPKPKDTLMISRTPEVTCVVVDVSDEDPEVKFNWYVDGVEVHNAKTKPREEQYNSTYRVVSVLTVLHQDWLNGKEYKCKVSNKALPKPIEKTISKAKGQPREPQVYTLPPSREEMTKNQVSLTCLVKGFYPSDIAVEWESNGQPENNYKTTPPVLDSDGSFFLYSKLTVDKSRWQQGNVFSCSVMHEALHNHYTQKSLSLSP light: DIVMTQSPATLSLSPGERATLSCTSSQSVYHANWLSWFQQKPGQPPKLLIYWASTLAYGVPSRFSGSGSGTDFTLTISSLQPEDAATYYCAGGYGGGRYAFGQGTKVEIKRTVAAPSVFIFPPSDEQLKSGTASVVCLLNNFYPREAKVQWKVDNALQSGNSQESVTEQDSKDSTYSLSSTLTLSKADYEKHKVYACEVTHQGLSSPVTKSFNRGEC
